Measured values taken from paper PMC9278865.

Target: wt ACE2_(615)-Fc (M27) (human) (UniProt Q9BYF1)
Test: SPR

Chain of wt ACE2_(615)-Fc (M27) (human) (Q9BYF1 18-615): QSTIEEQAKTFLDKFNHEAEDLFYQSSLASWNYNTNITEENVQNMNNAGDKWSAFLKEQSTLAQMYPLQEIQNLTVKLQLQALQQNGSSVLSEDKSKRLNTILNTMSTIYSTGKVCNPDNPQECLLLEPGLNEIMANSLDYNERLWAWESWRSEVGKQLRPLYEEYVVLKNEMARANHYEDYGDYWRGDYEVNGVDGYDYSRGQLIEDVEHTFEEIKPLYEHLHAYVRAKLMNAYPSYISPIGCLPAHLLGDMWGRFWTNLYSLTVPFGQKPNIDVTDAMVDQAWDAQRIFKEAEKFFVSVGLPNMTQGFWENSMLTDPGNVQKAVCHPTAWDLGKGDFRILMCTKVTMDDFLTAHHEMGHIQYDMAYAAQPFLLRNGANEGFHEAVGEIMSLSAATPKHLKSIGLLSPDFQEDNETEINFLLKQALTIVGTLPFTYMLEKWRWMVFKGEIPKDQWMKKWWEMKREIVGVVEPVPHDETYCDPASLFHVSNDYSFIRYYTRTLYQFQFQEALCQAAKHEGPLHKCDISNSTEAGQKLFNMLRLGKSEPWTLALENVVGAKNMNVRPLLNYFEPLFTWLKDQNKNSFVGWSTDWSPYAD

With “SARS-CoV RBD (residues 306 to 577) (domain or fragment)” the fold lower affinity than RBDwt on M27 was 5 fold.
